Changes are numbered by the printed parent chain.

The target in test [1] is T1, human NPRB on HEK293 cells, without added ligand (human, UniProt P20594 23-1047).
T1 construct: whole, on cells; also called HEK NPRB cells; natriuretic peptide receptor B
T1 sequence (looked up): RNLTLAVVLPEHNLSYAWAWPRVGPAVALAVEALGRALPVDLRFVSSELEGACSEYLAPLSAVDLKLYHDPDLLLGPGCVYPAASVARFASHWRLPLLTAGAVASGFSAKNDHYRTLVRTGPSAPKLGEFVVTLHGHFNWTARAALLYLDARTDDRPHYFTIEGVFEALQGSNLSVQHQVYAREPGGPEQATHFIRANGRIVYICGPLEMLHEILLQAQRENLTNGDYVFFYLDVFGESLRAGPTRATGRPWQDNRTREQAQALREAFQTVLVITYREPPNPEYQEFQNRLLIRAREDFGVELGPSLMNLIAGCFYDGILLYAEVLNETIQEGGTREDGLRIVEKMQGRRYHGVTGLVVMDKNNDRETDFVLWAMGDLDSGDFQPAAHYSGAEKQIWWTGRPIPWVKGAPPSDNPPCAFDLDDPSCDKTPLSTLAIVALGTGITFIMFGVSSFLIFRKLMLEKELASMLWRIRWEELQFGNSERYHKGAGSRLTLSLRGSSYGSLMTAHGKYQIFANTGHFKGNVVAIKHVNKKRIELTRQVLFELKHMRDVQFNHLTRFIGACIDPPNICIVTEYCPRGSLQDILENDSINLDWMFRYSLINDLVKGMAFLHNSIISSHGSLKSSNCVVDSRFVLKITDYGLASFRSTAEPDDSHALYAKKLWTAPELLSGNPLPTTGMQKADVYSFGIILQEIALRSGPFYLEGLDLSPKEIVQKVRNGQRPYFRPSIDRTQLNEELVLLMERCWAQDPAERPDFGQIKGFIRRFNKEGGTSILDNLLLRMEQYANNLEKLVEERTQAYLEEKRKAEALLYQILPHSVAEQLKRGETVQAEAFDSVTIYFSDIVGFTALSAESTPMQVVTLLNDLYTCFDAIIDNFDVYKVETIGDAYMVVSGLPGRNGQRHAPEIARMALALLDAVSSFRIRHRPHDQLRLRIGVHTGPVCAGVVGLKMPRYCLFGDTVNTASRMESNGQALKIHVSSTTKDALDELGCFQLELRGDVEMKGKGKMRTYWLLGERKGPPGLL
Briefly: FACS, HEK NPRB cells without ligand.
Description: HEK NPRA cells are detached with Accutase (PAA Laboratories GmbH, Cat. No. L11-007, Austria), harvested by centrifugation (900 rpm, 4 minutes) and resuspended in FACS buffer (PBS/3% FCS/0.02% NaN3) to a final concentration of 10⁶ cells/ml. 100 μl of the cell suspension is transferred to each well of a 96 round bottom plate (TC Microwell 96U, Nunc). […] Cells are washed in 150 μl of FACS buffer, pelleted and resuspended in 50 μl of the solution containing the primary antibody comprising a BEL extract of Fabs, a diluted BEL extract or purified antibody diluted in FACS buffer and incubated on ice for 30 min. Cells are washed again in FACS buffer and resuspended in 50 μl of FACS buffer containing the secondary antibody (R-Phycoerythrin-conjugated Affipure F(ab′)₂ Fragment Goat Anti-Human IgG, Dianova) and incubated on ice for 45 min. Cells are washed twice with FACS buffer and resuspended in 200 μl of FACS buffer for analysis in the FACS Array (BD Biosciences).

Test [2] has as its target T2, human NPRA on HEK293 cells bound to ANP (human, UniProt P01160 124-151).
T2 construct: mature; Receptor-ligand complex on cells; also called HEK NPRA cells loaded with ANP; ANP-NPRA complex
T2 sequence: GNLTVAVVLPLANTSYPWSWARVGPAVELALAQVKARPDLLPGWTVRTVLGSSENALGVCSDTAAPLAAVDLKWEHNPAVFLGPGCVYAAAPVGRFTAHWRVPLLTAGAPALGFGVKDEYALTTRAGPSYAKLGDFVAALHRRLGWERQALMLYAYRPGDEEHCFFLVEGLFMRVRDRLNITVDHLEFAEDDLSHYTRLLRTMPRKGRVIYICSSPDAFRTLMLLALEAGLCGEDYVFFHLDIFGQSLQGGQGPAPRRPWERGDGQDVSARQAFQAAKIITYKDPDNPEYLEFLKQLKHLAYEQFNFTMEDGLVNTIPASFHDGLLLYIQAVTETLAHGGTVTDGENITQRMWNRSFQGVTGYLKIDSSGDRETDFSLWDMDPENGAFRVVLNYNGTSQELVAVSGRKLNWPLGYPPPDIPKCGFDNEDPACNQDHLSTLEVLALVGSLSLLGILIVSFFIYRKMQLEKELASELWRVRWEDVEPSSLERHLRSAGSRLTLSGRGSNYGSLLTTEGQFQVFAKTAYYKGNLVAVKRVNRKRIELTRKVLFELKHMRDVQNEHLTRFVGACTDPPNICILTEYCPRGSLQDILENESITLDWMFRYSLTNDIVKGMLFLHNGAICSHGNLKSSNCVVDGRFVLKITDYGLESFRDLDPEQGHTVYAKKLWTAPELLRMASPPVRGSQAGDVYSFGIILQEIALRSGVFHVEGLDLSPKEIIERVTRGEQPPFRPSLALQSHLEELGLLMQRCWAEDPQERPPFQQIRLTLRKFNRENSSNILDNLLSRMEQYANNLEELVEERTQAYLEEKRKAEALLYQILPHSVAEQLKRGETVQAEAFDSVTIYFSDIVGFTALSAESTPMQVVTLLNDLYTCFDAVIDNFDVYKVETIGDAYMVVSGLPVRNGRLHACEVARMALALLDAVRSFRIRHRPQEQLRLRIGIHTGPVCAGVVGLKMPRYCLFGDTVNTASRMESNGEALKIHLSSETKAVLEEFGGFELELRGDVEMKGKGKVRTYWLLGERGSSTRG
T2 sequence (peptide): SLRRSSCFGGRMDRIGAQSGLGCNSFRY
As to the kind of experiment: KinExA whole cell binding (Kd,app), HEK cells with human NPRA, ANP bound, 75 and 200 pM IgG.
Description: Initial species cross-reactivity studies are performed using HEK cell lines overexpressing rat, canine and rhesus monkey NPRA. […] These apparent Kd values are obtained by globally fitting the data for two antibody concentrations.

B1: 5502 IgG4_Pro (antibody, V domains shown)
VH: QVQLQQSGPGLVKPSQTLSLTCAISGDSVSSRSASWSWIRQSPGRGLEWLGRIYYRSKWYNDYAVSVKSRITINPDTSKNQFSLQLNSVTPEDTAVYYCARMDVPSFRYFDVWGQGTLVTVSS
VL: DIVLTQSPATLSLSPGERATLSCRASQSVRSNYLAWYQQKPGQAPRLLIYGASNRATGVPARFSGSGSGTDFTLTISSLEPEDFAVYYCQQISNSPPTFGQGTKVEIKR
notes: Human IgG4_Pro
In the case of B1, the binding result in test [1] is given as “no binding (tested: 20 nM)”.

B2: 5591 IgG4_Pro (antibody, V domains shown)
VH: B1 VH with I53T, K58H, N61Y, D62E, V65Q
VL: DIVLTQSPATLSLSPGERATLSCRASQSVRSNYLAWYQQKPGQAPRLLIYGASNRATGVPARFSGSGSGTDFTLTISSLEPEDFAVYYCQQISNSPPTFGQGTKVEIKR
B2 registered a Kd in test [2] of 0.59 nM.

(Values after patent publication US20160168251A1 (MorphoSys, published 2016).)
